Results from patent US20240261333A1, “NOVEL TARGETS FOR ENHANCING ANTI-TUMOR IMMUNITY” (THE BROAD INSTITUTE, INC., priority 2021, published 2024).

Experiments:
HSPD1 (human) = HSPD1 (human) (UniProt P10809); test: co-IP with control IgG, mass spectrometry; lysate of cells with C-FLAG B3GNT2
STAU2 (human) = STAU2 (human) (UniProt Q9NUL3); test: as above
SEL1L (human) = SEL1L (human) (UniProt Q9UBV2); test: as above
ARF4 (human) = ARF4 (human) (UniProt P18085); test: as above
PIGR (human) = PIGR (human) (UniProt P01833); test: as above
RPL9 (human) = RPL9 (human) (UniProt P32969); test: as above
CTHRC1 (human) = CTHRC1 (human) (UniProt Q96CG8); test: as above
TOR1AIP2 (human) = TOR1AIP2 (human) (UniProt Q8NFQ8); test: as above
RPS27 (human) = RPS27 (human) (UniProt P42677); test: as above
SPRR1A (human) = SPRR1A (human) (UniProt P35321); test: as above
MSN (human) = MSN (human) (UniProt P26038); test: as above
IPO13 (human) = IPO13 (human) (UniProt O94829); test: as above
GALNT2 (human) = GALNT2 (human) (UniProt Q10471); test: as above
GAPDH (human) = GAPDH (human) (UniProt P04406); test: as above
CCT7 (human) = CCT7 (human) (UniProt Q99832); test: as above
GANAB (human) = GANAB (human) (UniProt Q14697); test: as above
CD70 (human) = CD70 (human) (UniProt P32970); test: as above
ZC3HAV1 (human) = ZC3HAV1 (human) (UniProt Q7Z2W4); test: as above
RARS (human) = RARS (human) (UniProt P54136); test: as above
DNAJB11 (human) = DNAJB11 (human) (UniProt Q9UBS4); test: as above
CCT2 (human) = CCT2 (human) (UniProt P78371); test: as above
UGGT1 (human) = UGGT1 (human) (UniProt Q9NYU2); test: as above
SRP14 (human) = SRP14 (human) (UniProt P37108); test: IgG control IP from lysate of cells overexpressing N-FLAG B3GNT2, then mass spectrometry
VIM (human) = VIM (human) (UniProt P08670); test: as above
KHDRBS1 (human) = KHDRBS1 (human) (UniProt Q07666); test: as above
PABPC1 (human) = PABPC1 (human) (UniProt P11940); test: as above
SUPT16H (human) = SUPT16H (human) (UniProt Q9Y5B9); test: as above
TIMP3 (human) = TIMP3 (human) (UniProt P35625); test: as above
CASC3 (human) = CASC3 (human) (UniProt O15234); test: as above
TAF15 (human) = TAF15 (human) (UniProt Q92804); test: as above
CAPRIN1 (human) = CAPRIN1 (human) (UniProt Q14444); test: as above
TFAM (human) = TFAM (human) (UniProt Q00059); test: as above
MAGED2 (human) = MAGED2 (human) (UniProt Q9UNF1); test: as above
CPSF6 (human) = CPSF6 (human) (UniProt Q16630); test: as above
EIF3I (human) = EIF3I (human) (UniProt Q13347); test: as above
TCP1 (human) = TCP1 (human) (UniProt P17987); test: as above
ANXA2 (human) = ANXA2 (human) (UniProt P07355); test: as above

SRP14 (human), sequence (P37108 2-136 limits assumed): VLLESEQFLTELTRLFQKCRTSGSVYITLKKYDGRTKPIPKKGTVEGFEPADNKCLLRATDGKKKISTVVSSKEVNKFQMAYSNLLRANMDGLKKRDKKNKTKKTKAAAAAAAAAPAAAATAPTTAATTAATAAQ
RARS (human), sequence (P54136 whole entry): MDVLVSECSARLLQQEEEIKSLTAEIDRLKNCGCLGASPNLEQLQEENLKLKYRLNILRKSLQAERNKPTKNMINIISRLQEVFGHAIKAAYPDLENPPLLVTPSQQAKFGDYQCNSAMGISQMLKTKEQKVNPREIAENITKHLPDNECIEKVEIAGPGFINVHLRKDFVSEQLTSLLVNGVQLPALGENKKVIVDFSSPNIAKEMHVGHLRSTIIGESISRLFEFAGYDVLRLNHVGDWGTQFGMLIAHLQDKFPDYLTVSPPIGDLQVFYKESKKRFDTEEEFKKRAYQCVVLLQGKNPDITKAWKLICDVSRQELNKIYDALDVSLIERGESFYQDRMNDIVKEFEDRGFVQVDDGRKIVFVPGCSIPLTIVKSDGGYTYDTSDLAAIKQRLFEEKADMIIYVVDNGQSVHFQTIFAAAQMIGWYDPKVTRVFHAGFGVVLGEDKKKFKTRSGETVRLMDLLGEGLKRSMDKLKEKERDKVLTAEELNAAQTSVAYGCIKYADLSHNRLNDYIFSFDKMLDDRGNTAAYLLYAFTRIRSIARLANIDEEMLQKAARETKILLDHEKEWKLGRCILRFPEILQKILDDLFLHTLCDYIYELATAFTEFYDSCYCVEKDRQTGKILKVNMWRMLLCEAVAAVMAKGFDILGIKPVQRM
MAGED2 (human), sequence (Q9UNF1 2-606 limits assumed): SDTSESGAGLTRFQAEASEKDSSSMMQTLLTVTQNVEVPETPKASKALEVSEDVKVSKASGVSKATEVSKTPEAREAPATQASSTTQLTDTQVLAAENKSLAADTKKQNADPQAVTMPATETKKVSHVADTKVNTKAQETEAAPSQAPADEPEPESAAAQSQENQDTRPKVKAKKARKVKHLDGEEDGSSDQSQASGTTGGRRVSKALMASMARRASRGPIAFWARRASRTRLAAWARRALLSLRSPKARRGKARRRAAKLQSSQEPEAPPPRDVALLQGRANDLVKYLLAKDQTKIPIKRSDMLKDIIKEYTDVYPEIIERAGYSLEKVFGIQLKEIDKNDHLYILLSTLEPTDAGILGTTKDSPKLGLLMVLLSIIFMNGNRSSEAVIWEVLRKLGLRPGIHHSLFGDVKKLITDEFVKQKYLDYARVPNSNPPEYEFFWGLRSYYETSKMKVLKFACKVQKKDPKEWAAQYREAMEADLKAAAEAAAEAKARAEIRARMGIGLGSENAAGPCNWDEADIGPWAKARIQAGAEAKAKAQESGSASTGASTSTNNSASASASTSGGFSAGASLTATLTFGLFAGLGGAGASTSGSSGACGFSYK
CASC3 (human), sequence (O15234 whole entry): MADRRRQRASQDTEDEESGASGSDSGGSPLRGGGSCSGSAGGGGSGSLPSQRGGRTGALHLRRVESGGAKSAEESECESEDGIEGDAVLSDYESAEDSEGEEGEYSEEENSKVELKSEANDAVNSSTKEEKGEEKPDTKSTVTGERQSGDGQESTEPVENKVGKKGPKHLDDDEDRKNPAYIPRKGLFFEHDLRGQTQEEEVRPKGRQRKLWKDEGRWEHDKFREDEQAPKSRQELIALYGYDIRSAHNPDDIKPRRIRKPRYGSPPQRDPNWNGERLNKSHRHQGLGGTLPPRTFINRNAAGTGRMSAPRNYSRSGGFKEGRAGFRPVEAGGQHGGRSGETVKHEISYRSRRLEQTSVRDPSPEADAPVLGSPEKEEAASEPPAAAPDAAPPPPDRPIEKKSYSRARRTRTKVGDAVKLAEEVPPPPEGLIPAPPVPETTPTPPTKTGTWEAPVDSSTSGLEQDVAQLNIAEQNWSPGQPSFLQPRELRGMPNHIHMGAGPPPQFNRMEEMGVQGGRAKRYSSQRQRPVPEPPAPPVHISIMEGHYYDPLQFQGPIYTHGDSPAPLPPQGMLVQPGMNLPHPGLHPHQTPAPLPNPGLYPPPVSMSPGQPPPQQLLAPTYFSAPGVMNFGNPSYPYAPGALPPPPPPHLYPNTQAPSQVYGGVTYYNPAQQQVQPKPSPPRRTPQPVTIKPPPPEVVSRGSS
VIM (human), sequence (P08670 2-466 limits assumed): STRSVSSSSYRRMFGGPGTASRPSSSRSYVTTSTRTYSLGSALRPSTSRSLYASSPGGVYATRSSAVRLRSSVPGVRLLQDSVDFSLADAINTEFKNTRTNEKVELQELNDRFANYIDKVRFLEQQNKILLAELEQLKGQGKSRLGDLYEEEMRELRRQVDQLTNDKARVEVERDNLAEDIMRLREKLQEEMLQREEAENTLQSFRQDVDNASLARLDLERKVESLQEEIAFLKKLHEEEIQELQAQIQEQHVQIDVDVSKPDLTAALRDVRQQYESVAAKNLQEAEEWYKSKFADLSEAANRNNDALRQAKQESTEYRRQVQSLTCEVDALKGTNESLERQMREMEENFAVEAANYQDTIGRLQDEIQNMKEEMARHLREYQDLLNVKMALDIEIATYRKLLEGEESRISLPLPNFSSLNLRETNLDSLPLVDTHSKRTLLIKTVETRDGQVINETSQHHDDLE
CPSF6 (human), sequence (Q16630 other isoform, or with tags, fused parts or gaps limits assumed): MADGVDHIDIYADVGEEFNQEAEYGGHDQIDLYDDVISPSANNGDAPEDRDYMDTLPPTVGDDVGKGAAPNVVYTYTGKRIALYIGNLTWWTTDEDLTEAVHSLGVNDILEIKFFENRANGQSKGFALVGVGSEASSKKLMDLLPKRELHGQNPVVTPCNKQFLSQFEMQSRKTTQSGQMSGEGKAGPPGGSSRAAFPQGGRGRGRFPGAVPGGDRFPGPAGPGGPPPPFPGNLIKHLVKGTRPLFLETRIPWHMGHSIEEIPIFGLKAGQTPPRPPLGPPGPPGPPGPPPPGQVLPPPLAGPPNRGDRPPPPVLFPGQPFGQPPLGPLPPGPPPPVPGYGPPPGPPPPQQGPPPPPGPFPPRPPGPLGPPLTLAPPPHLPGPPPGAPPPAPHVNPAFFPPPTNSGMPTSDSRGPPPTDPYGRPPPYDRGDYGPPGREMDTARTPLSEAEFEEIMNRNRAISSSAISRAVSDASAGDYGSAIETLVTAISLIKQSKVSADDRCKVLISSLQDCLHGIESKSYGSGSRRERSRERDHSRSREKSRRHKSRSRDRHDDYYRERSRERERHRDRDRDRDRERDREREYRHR
MSN (human), sequence (P26038 2-577 limits assumed): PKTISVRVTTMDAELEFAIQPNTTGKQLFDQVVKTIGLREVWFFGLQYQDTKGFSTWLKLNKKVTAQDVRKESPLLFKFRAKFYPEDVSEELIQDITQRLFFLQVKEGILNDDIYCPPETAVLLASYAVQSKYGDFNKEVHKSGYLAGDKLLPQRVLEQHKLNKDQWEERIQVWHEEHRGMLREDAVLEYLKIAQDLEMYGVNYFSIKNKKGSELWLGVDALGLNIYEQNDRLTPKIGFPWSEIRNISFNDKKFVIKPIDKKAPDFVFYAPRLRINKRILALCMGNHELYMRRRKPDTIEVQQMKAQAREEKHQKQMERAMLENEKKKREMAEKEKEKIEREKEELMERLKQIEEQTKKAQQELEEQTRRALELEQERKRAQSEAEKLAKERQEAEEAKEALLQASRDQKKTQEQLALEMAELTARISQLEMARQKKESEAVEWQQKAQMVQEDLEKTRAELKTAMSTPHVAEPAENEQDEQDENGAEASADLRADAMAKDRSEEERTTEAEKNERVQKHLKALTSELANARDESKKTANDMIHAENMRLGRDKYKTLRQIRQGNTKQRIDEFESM
HSPD1 (human), sequence (P10809 27-573 limits assumed): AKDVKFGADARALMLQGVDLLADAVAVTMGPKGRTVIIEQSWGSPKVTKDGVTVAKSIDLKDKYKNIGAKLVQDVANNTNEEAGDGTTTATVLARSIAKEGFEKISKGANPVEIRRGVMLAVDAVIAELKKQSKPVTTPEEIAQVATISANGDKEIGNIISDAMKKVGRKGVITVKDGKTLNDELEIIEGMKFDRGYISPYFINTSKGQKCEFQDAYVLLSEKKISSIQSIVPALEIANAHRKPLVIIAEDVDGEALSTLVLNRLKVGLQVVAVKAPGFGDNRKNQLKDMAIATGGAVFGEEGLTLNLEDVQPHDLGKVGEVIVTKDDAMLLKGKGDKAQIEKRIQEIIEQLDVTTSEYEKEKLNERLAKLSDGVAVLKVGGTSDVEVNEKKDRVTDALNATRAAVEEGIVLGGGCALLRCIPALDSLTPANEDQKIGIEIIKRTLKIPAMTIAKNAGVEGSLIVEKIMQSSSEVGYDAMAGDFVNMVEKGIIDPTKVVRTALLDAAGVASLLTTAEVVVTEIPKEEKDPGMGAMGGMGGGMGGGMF
GALNT2 (human), sequence (Q10471 whole entry): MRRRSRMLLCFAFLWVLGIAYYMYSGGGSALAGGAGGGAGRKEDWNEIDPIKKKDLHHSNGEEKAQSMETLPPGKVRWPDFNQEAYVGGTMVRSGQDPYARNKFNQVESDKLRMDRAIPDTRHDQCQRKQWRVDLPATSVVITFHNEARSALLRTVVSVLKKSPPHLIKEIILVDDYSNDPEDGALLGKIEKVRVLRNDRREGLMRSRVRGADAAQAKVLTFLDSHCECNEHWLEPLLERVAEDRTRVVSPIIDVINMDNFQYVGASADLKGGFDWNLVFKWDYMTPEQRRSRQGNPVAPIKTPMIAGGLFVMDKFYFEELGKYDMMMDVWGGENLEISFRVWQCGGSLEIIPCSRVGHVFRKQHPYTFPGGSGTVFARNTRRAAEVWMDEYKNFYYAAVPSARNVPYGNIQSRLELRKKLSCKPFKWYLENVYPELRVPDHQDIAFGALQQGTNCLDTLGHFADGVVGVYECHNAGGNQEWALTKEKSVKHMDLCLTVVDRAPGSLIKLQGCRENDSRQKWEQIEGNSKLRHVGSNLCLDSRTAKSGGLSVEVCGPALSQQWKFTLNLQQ
SPRR1A (human), sequence (P35321 whole entry): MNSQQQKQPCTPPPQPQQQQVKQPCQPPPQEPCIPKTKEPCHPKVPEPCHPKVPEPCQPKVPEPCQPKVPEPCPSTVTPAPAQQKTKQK

With “IgG control (Millipore Sigma 12-371) (antibody)” the co-IP mass spectrometry count (HSPD1 (human)) was 2, the co-IP mass spectrometry count (STAU2 (human)) was 0 and the co-IP mass spectrometry count (SEL1L (human)) was 0. It also gave a co-IP mass spectrometry count (ARF4 (human)) of 0, a co-IP mass spectrometry count (PIGR (human)) of 0 and a co-IP mass spectrometry count (RPL9 (human)) of 0. It also gave a co-IP mass spectrometry count (CTHRC1 (human)) of 0, a co-IP mass spectrometry count (TOR1AIP2 (human)) of 0 and a co-IP mass spectrometry count (RPS27 (human)) of 0. For the same substance, the co-IP mass spectrometry count (SPRR1A (human)) was 0, the co-IP mass spectrometry count (MSN (human)) was 0 and the co-IP mass spectrometry count (IPO13 (human)) was 0. It also gave a co-IP mass spectrometry count (GALNT2 (human)) of 0, a co-IP mass spectrometry count (GAPDH (human)) of 6 and a co-IP mass spectrometry count (CCT7 (human)) of 0. The co-IP mass spectrometry count (GANAB (human)) was 0, the co-IP mass spectrometry count (CD70 (human)) was 0 and the co-IP mass spectrometry count (ZC3HAV1 (human)) was 0. The co-IP mass spectrometry count (RARS (human)) was 0, the co-IP mass spectrometry count (DNAJB11 (human)) was 0 and the co-IP mass spectrometry count (CCT2 (human)) was 0. The co-IP mass spectrometry count (UGGT1 (human)) was 0, the co-IP mass spectrometry count (N-term IgG) (SRP14 (human)) was 0 and the co-IP mass spectrometry count (N-term IgG) (VIM (human)) was 452. For the same substance, the co-IP mass spectrometry count (N-term IgG) (KHDRBS1 (human)) was 10, the co-IP mass spectrometry count (N-term IgG) (PABPC1 (human)) was 37 and the co-IP mass spectrometry count (N-term IgG) (SUPT16H (human)) was 0. For the same substance, the co-IP mass spectrometry count (N-term IgG) (TIMP3 (human)) was 0, the co-IP mass spectrometry count (N-term IgG) (CASC3 (human)) was 0 and the co-IP mass spectrometry count (N-term IgG) (TAF15 (human)) was 10. The co-IP mass spectrometry count (N-term IgG) (CAPRIN1 (human)) was 6, the co-IP mass spectrometry count (N-term IgG) (TFAM (human)) was 0 and the co-IP mass spectrometry count (N-term IgG) (MAGED2 (human)) was 0. It also gave a co-IP mass spectrometry count (N-term IgG) (CPSF6 (human)) of 28, a co-IP mass spectrometry count (N-term IgG) (EIF3I (human)) of 0 and a co-IP mass spectrometry count (N-term IgG) (TCP1 (human)) of 0. For the same substance, the co-IP mass spectrometry count (N-term IgG) (ANXA2 (human)) was 15.
